Data published in the DeepSol protein solubility set.

Test: soluble on expression in E. coli; label from the status in PepcDB or PDB records

Sequence | soluble on expression in E. coli
MASTRPDNVLVWMASRGSYVESMPGTILRIKNASKFGENLYGFKDQPGELVEVTWDAMFKLRPTLVEVDFGRNPCDELVKVIEKNYNNEQISHFFEKVKALSLHMTDITSESLLKLMDKFTLLAAFSFSETKFSTPEWATILKRLSELNLRGIDLSDNILSEVQQHIDVSLMKLSGNPGVDVNEFKKGIEFVTVKVLAVQELKFLGETDAEQLLEVLPQSFPRLETLIWDWNVVDPELNFDERTKKVLDQLLFVNKQLNLGSLAVVAYTPNPETKTAIESVARTLKGSIKDVQLHQFATKGLSDGMANFSLIVAGNNEKAMKELMDMYMVDRSTMPPMGKLLRLCEEDIVPIYPAITMDFGGFNKNRIRQLYTESPTD | not soluble
MGSDKIHHHHHHMIENVNYARTLLTEEEVGHIVQSGTIVRYKKGQIIFSESDAADRVYFVKEGYVRIFRITQYGRRVTVGCIRSPGQLMGLAETLYGGDRTCFASAIDDVTIVVIRHQQFLDLLEKHPAIAIKVTITLAIRMREAEGIIEEMVCFQVPGRLAQLLIKMAKRAGMETPRGTKISFRLTHEDIAYMIGTSRQNVTSLLNTFKYENSIAIEDKELYILDIEKLNSWVV | not soluble
MGEQDPSDRLRGDQLKEPNQNGKGSFSQFSSSVRAMVRIRMKYQAIKKRRMEIASATPQIFTSPRSTSPKVFTFDNLHEPVNSNPASPRKRKKKRKGRVLYPTSSLRAVPTKESSRAKNCLYLLCIIVFLQVYNAIENLDDHVLKYDLEGLEKTLKREVFGQQEVAEGLLGHLQDYLSTYVHNKPLVLSFHGPTGVGKSHVGRLLAQHFRSVVGEELVMQYFVLHHCPTDDDIPVCTKSLESHISEMVSQGEEEEKIPVFIFDEVEHMPRQLMDTLRELIQPQNSNKYLNAIYILISNLGHEDITKFVLHNSSIAISGRLSLTQELTPWLRNYLQEHHGLFLDAEYLPFMLLEKSHVMDCFIDEMSREGFYPDRSHVERLAEELSYYIVGEREFSHTGCRQVVAKVNLL | soluble
MENTNEAAWILSIDKFRHNEGIINFSDQNRETAYHHTIKEINVALDNFSTKAGDNNMHLVKAKTSQGTELNWHGKFSLSPLKSSGDISFVSPLKIVSDYLQQRILFNITEGSLKVNSHYDFNFAGEQPQFIINNLMASISALEIRSRDDNKKIITSDELSVDLEQLSSLEHHHHHH | not soluble
MGSDKIHHHHHHMLDSLFPIKRNYLDRNGHKLQYVNEGQGEPVVMVHGNPSWSFYYRNLVTALSPNHQCIVPDHIGCGLSDKPDDAGYDYTLKNRIDDLEALLDHLEVKEKITLIVHDWGGMIGMGYAARHPERIKKIVVLNTGAFHLPEAKPFPWALWICRNTLLGTVLVRGFNAFSSIASYVGVKRAPMPKAIREAYVAPFNSWANRISTLRFVQDIPLKPGDRNYELVSEISEKLNQFNQLPMMICWGLKDFVFDKHFLDEWKRRFPEAEVHEFADCGHYILEDASDEVVAQVQQFMAR | not soluble
AKGSTNHRALTGVIFEPFEEVKKELDLVPTVPQASLARQKYVDESESAVNEQINVEYNVSYVYHAMFAYFDRDNVALRGLAKFFKESSEEEREHAEKLMEYQNKRGGKVKLQSIVMPLSDFDHADKGDALHAMELALSLEKLTNEKLLNLHSVATKNGDVQLADFVETEYLGAQVEAIKRISEYVAQLRRVGKGHGVWHFDQMLLHEGGDAA | soluble
MLALGIEGTAHTLGIGIVSEDKVLANVFDTLTTEKGGIHPKEAAEHHARLMKPLLRKALSEAGVSLDDIDVIAFSQGPGLGPALRVVATAARALAVKYRKPIVGVNHCIAHVEITKMFGVKDPVGLYVSGGNTQVLALEGGRYRVFGETLDIGIGNAIDVFARELGLGFPGGPKVEKLAEKGEKYIELPYAVKGMDLSFSGLLTEAIRKYRSGKYRVEDLAYSFQETAFAALVEVTERAVAHTEKDEVVLVGGVAANNRLREMLRIMTEDRGIKFFVPPYDLCRDNGAMIAYTGLRMYKAGISFRLEETIVKQKFRTDEVEIVWHHHHHH | soluble
EKTEQEQILIPVANPDTIEDLINLALVIRDTKQKKELIALNVINDNNNSENKELQGKRNLEKAAMIAASADVSVNMVSRYDLNIASGIIHTIKEYDATDVVIGLHRKANIVDSFFGNLAESLLKGTHREVIIAKFLMPVN | not soluble
MAQTEKLTDYVNPFVGTDGYGNVYPGAQIPFGGIQISPDTDSRFYDAASGYKYNHLTLMGFSLTHLSGTGIPDLGDFLFIPGTGEMKLEPGTHEDPDQGYRSRYSHDKEWASPNYYAVELADYGVKAEMTSGVRSGMFRFTYPESDNAFIMIDMNHTLWQSCEWSNLRMINDSTITGYKLVKGWGPERHVYFTATFSKKLEHHHHHH | not soluble
MRVNDVNLMRYIQQLSLERKAPTPGSFLFNTVSELAVQQKLRGQIEGYKTTLSQIYNGIGLLNTANAGLESISTALQRARELAVQASNATLTDVERSMIQKEYEEIMRGVKRIIQQTTYNEQRVLAGDVRNLVIQTGPNEGQNVTVNIPNLEETLSELFEVDLSTFEGAQRSLETIDQALENISQIRGNVGSWMNRLESSARSVMNSYTELFKTESLFEPSVAELLLESTKEDILRQTALTGILFRMENAGNVLKLLM | not soluble
MVFMQKRIIYGIDIARGSPRARELPRYALAILRDGEISHFSMLRRQKIFNMIQRDRPEIIAVDNIFELAADRNELLSLMERLPDGVKLVQVTGGLHPEPLVRIARKHGISLDPENPNDEAEACARLADLGVGHEVSLFEDITKIKVSRARSLGRGGWSQNRYRRKVHGAVLQRSREIENILKDLSREKGIRFEAVNVKGFGGYVRSEFTVYAKRGEVPVHSMASNDAQVSVRSVERDKIRYVPLKPRSQKRKFTIVGLDPGTTVGIAILSLDGDLLYLKSFRGIAPDEVVKIIAEYGKPAVIASDVTPMPGSVEKIRRSFNAVPASPGIEVSAEEKIALGKTFGYSNDHERDALTAALLTYRSYKNIFTRIEKKAPENSDLELIKLHVIRGESIESAIEKVRAASQAREKPAGARAAPEKPEEKAVDESFQRMRETVQRQGEQIQNLQEYVEELKQAMAAKDRKISKLESRLKGFKKEAYSEIRKSKEVQIRDSTIESLKKELSNKNKTVKELRRRSNKLRKIQKMEIRGEGTPVKVIAAFTKESIAETKEKYGLKAGDVVFLEKPSGGGAATAQILVEARVRAVIIPEDISHAAEETFFKGDVPVLRDIQLERADDFAMALEHHHHHH | not soluble
MTFFPEIDIQKTKSNAKRKLREYPRWRRIANDVDTQKVTATYSFEPRQSHGVPSKPVERLALNRVSAEQELDAIEQAVSMILEPERRRILYDKYLAPYKKADKVIYTELCMSESFYYDTLDIALLAFAELYREGVLLVEEGVFS | not soluble
MKYQAAIFDMDGLLLDTERVCMRIFQEACEVQNLPFYEDVYLSIIGRNAAGIETIFRKAYGENLDRLHLEWRTRYNAVVKHQAIP | not soluble
MAEKKLEENPYDLDAWSILIREAQNQPIDKARKTYERLVAQFPSSGRFWKLYIEAEIKAKNYDKVEKLFQRCLMKVLHIDLWKCYLSYVRETKGKLPSYKEKMAQAYDFALDKIGMEIMSYQIWVDYINFLKGVEAVGSYAENQRITAVRRVYQRGCVNPMINIEQLWRDYNKYEEGINIHLAKKMIEDRSRDYMNARRVAKEYETVMKGLDRNAPSVPPQNTPQEAQQVDMWKKYIQWEKSNPLRTEDQTLITKRVMFAYEQCLLVLGHHPDIWYEAAQYLEQSSKLLAEKGDMNNAKLFSDEAANIYERAISTLLKKNMLLYFAYADYEESRMKYEKVHSIYNRLLAIEDIDPTLVYIQYMKFARRAEGIKSGRMIFKKAREDARTRHHVYVTAALMEYYCSKDKSVAFKIFELGLKKYGDIPEYVLAYIDYLSHLNEDNNTRVLFERVLTSGSLPPEKSGEIWARFLAFESNIGDLASILKVEKRRFTAFREEYEGKETALLVDRYKFMDLYPCSASELKALGYKDV | soluble
MEVQTETYRAAMNGTLERHFSDMIAVIPTRITIEQLKQRLENIATKVDELKIVYSDETSLIVELHMDETIIPYELHIDEANDPEEYKMYNRQDSTIVDRNFEDAAFGTEIFTRTLFVGDVLDCFFQQIQFLWNLAPDLLFVIDSSAAMKVISRNYIEYHVENELLPDIPDLYVIHSVYEDDKEGEPTQYWFHTHGLLRAGVTEIELIIPNRISSYYGIGDLFQTFANNAVENGQVPMNEPIVIAHSQQGSIHTVAVPWEKGLSYIGHKTSMDQLSSIEDEEVKLQPIDAQNTFLGGMDARDEYHQSPSVLLFKFNTSEEYIESFFKEHEEATGLMFYKTNSETDRMAYNAKNTFGYFSNIFQIEKSNEEFRFLAKFGVSYEEGKSEHMWFEMQHITEDLIQGILINEPYFIEDMSEGNSYHLDFDNLTDWVIYAGDAVIKPNNLYMFIGE | not soluble
MDWYEPGEDTYTLMDALEREGLEMKIVLDLGTSTGVITEQLRKRNTVVSTDLNIRALESHRGGNLVRADLLCSINQESVDVVVFNPPYVPDTDDPIIGGGYLGREVIDRFVDAVTVGMLYLLVIEANRPKEVLARLEERGYGTRILKVRKILGETVYIIKGEKS | not soluble
MDRATVVGGAARRLAMIAVIIPAHNEAECMAACLASVFLAASHPELREPVEVIVAVDRCTDATAALAQALGARVIDVPVPGGVGIARAAAASKAIALGADWLAVTDADSRVPADWLVEQRRADADVFCGVVQVEDWLDYSDEVRCRFEQTQATGQGHGRIHGANLGVSAALYQQCGGFPAVTCSEDVALVHALQAINASIAWSPRSVVWTSARRQARAIGGFSDFLKKLEASTCVPALEHHHHHH | not soluble
MSLSQLFKSFDASEKTQLICFPFAGGYSASFRPLHAFLQGECEMLAAEPPGHGTNQTSAIEDLEELTDLYKQELNLRPDRPFVLFGHSMGGMITFRLAQKLEREGIFPQAVIISAIQPPHIQRKKVSHLPDDQFLDHIIQLGGMPAELVENKEVMSFFLPSFRSDYRALEQFELYDLAQIQSPVHVFNGLDDKKCIRDAEGWKKWAKDITFHQFDGGHMFLLSQTEEVAERIFAILNQHPIIQPEGGSHHHHHH | soluble
MSLSSITNVAATAGVSIATVSRVLSGKRGKDDDIARRVREAAKQLGYSVNYAASALRSDVTKTIGLVIPSATEPFSAQLLDEIEPTIDTESQQLLLGIGATQEAQAERIESLVNRHVDGLIVVPAAGADLAGTLNQYANTLPIVQICGRQTAPRVSVVGIDENAAMEAIVKHLAEQGIASAAYMAGDELSFESAELFATFHTHMRTYGLVTSENWNQFGERTVQRGFDCAMRLFNGPLVQPEAVVCADDAIAFGVMVAFDALGIRVPEDVLVVGYHDSAIARTTMPRLTSVRAPFERIVSECLRLLASGPAGGAAETAAAPGGSVRAPRVMLAPQLIVRDSSVFREGHHHHHH | soluble
MAHHHHHHMYYADVDYEVPSRVVQLTDATFDTIVMDPTKDVFVLYCVTWSRHCRSAVKLWADLSISQFKRPTADTFVAALIDAEAFPETAKRMGVKSYPTMLFYTRLEKATPLEYNGQGLLPLLDSFVFQNS | not soluble
MPKRKLKTPESTETTKICKKNDNFSDFWSEKLDEIGSAHLADTKSRTKSAVKHELTGIGSSSIYKGTRDLQLPKSEDLSNFGWNEGVLEHLQVLLEEIEVDEKKEEQIEAERGAILKFTAEYRDLLAITGDQGGYRSIYCAHIIQHLIRNKNLIIGNKRKLEIASTQEGGADEETIESCRDSGFVRPVVLVLCAFKKDAYDIINRLRRILHGDDEGKSEVWNKNRFEEEYSGPTELPTTRADFPDDHKELLLGNNDDAFRIGLAISKKVLKLYEKFEKADILVCSPLGLRMILNGDDGNEAHLISSINMTIVDRTDIMLQQNWENLQLIFSHLHSQPSKIDVDISRVRKLYLDGQSRHFSQLLMFSRYSHELFTSLMLQNSQNHRGLVIAKPKQSGTLSNIEIPLCQELHKFEVKDPNETSDLRFKYFVDKIMPSLIPRTLIVIPSYFDFVRVRNHLKKAEESFVMCHEYATRAKVDRAREMFFHERKSYLVVTERWYFFNRRHLTGVHRVVFYQLPSHPLFYSEFINMSDAETSQRFLAVLLLCKYDRIRLENTFGTEMAAAVMSNKQAVQAIVSQ | not soluble
